Experimental data reported in PMC11003769.
Residue numbers refer to the chain shown, from its start.

B1: Fab of mAb 15-3 (Fab, V domains shown)
VH: QVQLQESGPGVVKPSETLSLSCGVSSASILGGYFFWSWIRQSPGKGLEWMGGVYTNSDTTNYNPSLKSRVAISKDTSVNQFSLRLTSVTAADTAVYYCTARATVHSSASYYYGGRIDVWGPGLLVTVSS
VL: DIQMTQSPSSLSASLGDRVTVTCRASQGINRDLSWFQQKPGKAPTLLIYEVSNLQTGVSSRFSGSGSGTDFTLTISSLQPEDVATYYCQQDYDFPLTFGGGTKVDLK
B2: Fab of mAb 7-2 (Fab, V domains shown)
VH: QVQLQASGPGVVKPSETLSLTCAVSGDYVRRGYFYWSWVRQSPGKGLEWIGGIYSNSDTTNYNPSLKSRLTISKDTSNNQFFLTLSSVTAADTAVYYCTSRAKIYSSGSYYAGGRIDVWGPGVQVIVSS
VL: B1 VL with I2V, Q3H, R18S, R31K, K42E, E50D, V51A, N53T, S77N
B3: Fab of mAb 6-6 (Fab, V domains shown)
VH: QVQLQVSGPGVVKPSETLSLTCSVSGDSFRRAYFFWSWVRQPPGKGLEWMGGIYTNSESTTYNPSLESRISVSKDASKNQFSLRLTSVTAADTAVYYCTSRAEVYFSGGYYSGGRIDVWGPGVLVTVSS
VL: DIQMTQSPSSLSASVGDRVTVTCRASQDINKDLSWFQQKPGEAPTLLIFTASTLQTGVSSRFSGSGSGTSFSLTISSLQPEDVATYFCQQDHSFPLTFGGGTRVDLQ

Target: HIV-1 BG505.DS.SOSIP.S613A Env trimer (HIV-1 (strain BG505))
Test: BLI; Trimer-Fab method, Octet RED384, 25 °C, 1% BSA in PBS: trimer (100 nM) held by RM19R-human Fc IgG on anti-human Fc capture tips; Fab as analyte in serial dilutions; global fit to a 1:1 Langmuir model

In order of rising Kd:
1. B1  104 pM
2. B2  774 pM
3. B3  17000 pM

In order of rising koff:
1. B1  7.98e-06 s⁻¹
2. B2  0.000109 s⁻¹
3. B3  0.00304 s⁻¹

In order of rising kon:
1. B1  76500 M⁻¹ s⁻¹
2. B2  141000 M⁻¹ s⁻¹
3. B3  179000 M⁻¹ s⁻¹
